# Assay results reported in US20230105982A1 (Merck Sharp & Dohme, published 2023).
# Starred links: 1 amine or outer side, 2 acyl side, 3 side chain; linkers in the order of their positions; H or OH if unused. Non-standard residues stand in square brackets, D forms with d. Groups on a side chain read outwards from the residue. No end group written: not given here. *: point of attachment. C16 = C16 fatty acyl group, not further defined; C18 diacid = O=C(O)CCCCCCCCCCCCCCCCC(=O)*; Lys(N3) = [N-]=[N+]=NCCCC[C@H](N)C(=O)O; γGlu = O=C(O)[C@H](CCC(=O)[*:2])N[*:1]; Met(O2) = CS(=O)(=O)CC[C@H](N)C(=O)O; Palmitoyl = CCCCCCCCCCCCCCCC(=O)*; AEEA = NCCOCCOCC(=O)O; Aib = CC(C)(N)C(=O)O
# B1: PEP76 (control molecule of Table 7) (peptide)
# peptide: H[dS]QGTFTSDK([γGlu-γGlu-Palmitoyl])SKYLDERAAQDFVQWLLDT-NH2
# modifications: N-terminus assumed
# SMILES: CCCCCCCCCCCCCCCC(=O)N[C@@H](CCC(=O)N[C@@H](CCC(=O)NCCCC[C@H](NC(=O)[C@H](CC(=O)O)NC(=O)[C@H](CO)NC(=O)[C@@H](NC(=O)[C@H](Cc1ccccc1)NC(=O)[C@@H](NC(=O)CNC(=O)[C@H](CCC(N)=O)NC(=O)[C@@H](CO)NC(=O)[C@@H](N)Cc1c[nH]cn1)[C@@H](C)O)[C@@H](C)O)C(=O)N[C@@H](CO)C(=O)N[C@@H](CCCCN)C(=O)N[C@@H](Cc1ccc(O)cc1)C(=O)N[C@@H](CC(C)C)C(=O)N[C@@H](CC(=O)O)C(=O)N[C@@H](CCC(=O)O)C(=O)N[C@@H](CCCNC(=N)N)C(=O)N[C@@H](C)C(=O)N[C@@H](C)C(=O)N[C@@H](CCC(N)=O)C(=O)N[C@@H](CC(=O)O)C(=O)N[C@@H](Cc1ccccc1)C(=O)N[C@H](C(=O)N[C@@H](CCC(N)=O)C(=O)N[C@@H](Cc1c[nH]c2ccccc12)C(=O)N[C@@H](CC(C)C)C(=O)N[C@@H](CC(C)C)C(=O)N[C@@H](CC(=O)O)C(=O)N[C@H](C(N)=O)[C@@H](C)O)C(C)C)C(=O)O)C(=O)O
# Columns and labels:
# Test in all cases: cell-based or functional assay
# [1] = molecular target: human Glucagon receptor (GCGR) (human, UniProt P47871 26-477)
# [2] = molecular target: human GLP-1 receptor (GLP1R) (human, UniProt P43220 24-463)
# [3] = molecular target: human glucagon receptor (human, UniProt P47871 26-477)
# [4] = molecular target: human GLP-1 receptor (human, UniProt P43220 24-463)
Binder,"hGCGR_EC50 (nM), cAMP assay [1] [nM]","hGLP1R EC50 (nM), cAMP assay [2] [nM]",Incretin Receptor Assay (cAMP) EC50 [3] [pM],Incretin Receptor Assay (cAMP) EC50 [4] [pM]
H[Aib]QGTFTSDYSKYLDARAAK([AEEA-AEEA-γGlu-C18 diacid])DFV[Lys(N3)]WL[Met(O2)]DT-NH2 [PEP30],2.27,0.5,,
B1,,,9,7
H[dS]QGTFTSDK([γGlu-γGlu-C16])SKYLDERAAQ[Lys(N3)]FVQWLLDT-NH2 [PEP1],0.01,,,
HXEGTFTSDKSKYLDERAAQDFVXWLLDT (D-serine at 2; Lys 10 conjugated to γEγE-C16; Nle(εN3) at 24; C-terminal amide) [PEP75],> 5,,,
H[Aib]QGTFTSDYSKYLDARAAK([AEEA-AEEA-γGlu-C20‑OH])DFV[Lys(N3)]WL[Met(O2)]DT-NH2 [PEP31],4.24,1.38,,
